Data reported in patent publication US20200206304A1, “METHODS AND COMPOSITIONS FOR EFFICIENT DELIVERY THROUGH MULTIPLE BIO BARRIERS” (Cedars-Sinai Medical Center, priority 2017, published 2020).
Square brackets hold non-standard residues; d marks the D form. Ends that are not written are not given here.

Key:
[1] = molecular target: amyloid β (Aβ) plaques (UniProt P05067); experiment: in vivo labelling of Aβ plaques after i.v. injection into APPswe/PS1ΔE9 AD mice, injected dose 2X (0.137 µmol/Kg)
[2] = molecular target: amyloid β (Aβ) plaques (UniProt P05067); experiment: in vivo labelling of Aβ plaques after i.v. injection into APPswe/PS1ΔE9 AD mice, injected dose 6X (0.411 µmol/Kg)
[3] = molecular target: amyloid β (Aβ) plaques (UniProt P05067); experiment: in vivo labelling of Aβ plaques after i.v. injection into APPswe/PS1ΔE9 AD mice, injected dose 4X (0.274 µmol/Kg)
[4] = molecular target: amyloid β (Aβ) plaques (UniProt P05067); experiment: in vivo labelling of Aβ plaques after i.v. injection into APPswe/PS1ΔE9 AD mice, injected dose 8X (0.55 µmol/Kg)
[5] = molecular target: amyloid β (Aβ) plaques (UniProt P05067); experiment: in vivo labelling of Aβ plaques after i.v. injection of rhodamine-labelled conjugate into APPswe/PS1ΔE9 AD mice, dose 8X; fluorescence microscopy of brain sections

amyloid β (Aβ) plaques, sequence (P05067 672-713): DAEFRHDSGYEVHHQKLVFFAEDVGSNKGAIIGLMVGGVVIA

Percentage of total plaques labeled by the reagents [1]: 0%
Percentage of total plaques labeled by the reagents [2]: 0%
Percentage of total plaques labeled by the reagents [3]: 0%
Percentage of total plaques labeled by the reagents [4]: 21.1%
Percentage of total plaques labeled by the reagents [5]: 21.1%
B1: PMLA/LLL/D3/rhodamine (peptide)
peptide 1: [dR][dP][dR][dT][dR][dL][dH][dT][dH][dR][dN][dR]C
peptide 2: Leu-Leu-Leu
modifications: not fully specified (some residues, N-terminus); also: PMLA scaffold carrying LLL (amide-linked to pendant carboxylates), D3 peptide and rhodamine, D3 Cys thioether to maleimide-PEG3400 on PMLA
